Laboratory results as given in patent US20200079833A1 (AstraZeneca / MedImmune, published 2020).
Starred links: 1 amine or outer side, 2 acyl side, 3 side chain; linkers in the order of their positions; H or OH if unused. Non-standard residues stand in square brackets, D forms with d. Groups on a side chain read outwards from the residue. Primed or numbered codes have the meaning given here. No end group written: not given here. *: point of attachment. Dodecanoyl(12-OPh(4-COOH)) = O=C(O)c1ccc(OCCCCCCCCCCCC(=O)*)cc1; γGlu = O=C(O)[C@H](CCC(=O)[*:2])N[*:1]; Stearoyl = CCCCCCCCCCCCCCCCCC(=O)*; αMeF = C[C@](N)(Cc1ccccc1)C(=O)O; αMeK = C[C@](N)(CCCCN)C(=O)O; αMeS = C[C@](N)(CO)C(=O)O; PEG2′ = not defined here; Aib = CC(C)(N)C(=O)O; Ahx = NCCCCCC(=O)O

T1: glucose-dependent insulinotropic peptide (gastric inhibitory polypeptide) receptor (GIPR) (human, UniProt P48546 22-466)
T1 sequence (looked up): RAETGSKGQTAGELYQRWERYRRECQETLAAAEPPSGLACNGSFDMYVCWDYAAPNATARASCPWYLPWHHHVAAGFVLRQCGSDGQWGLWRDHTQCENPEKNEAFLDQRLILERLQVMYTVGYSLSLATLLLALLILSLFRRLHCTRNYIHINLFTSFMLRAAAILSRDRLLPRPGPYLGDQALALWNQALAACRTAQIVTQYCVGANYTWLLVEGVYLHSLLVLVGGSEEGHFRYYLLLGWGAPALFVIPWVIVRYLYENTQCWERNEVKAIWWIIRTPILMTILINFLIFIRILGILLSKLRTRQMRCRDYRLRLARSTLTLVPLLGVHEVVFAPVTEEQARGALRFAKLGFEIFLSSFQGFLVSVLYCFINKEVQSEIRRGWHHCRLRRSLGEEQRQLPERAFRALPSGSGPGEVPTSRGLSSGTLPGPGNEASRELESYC

T2: glucose-dependent insulinotropic peptide (gastric inhibitory polypeptide) receptor (human, UniProt P48546 22-466)
T2 sequence (looked up): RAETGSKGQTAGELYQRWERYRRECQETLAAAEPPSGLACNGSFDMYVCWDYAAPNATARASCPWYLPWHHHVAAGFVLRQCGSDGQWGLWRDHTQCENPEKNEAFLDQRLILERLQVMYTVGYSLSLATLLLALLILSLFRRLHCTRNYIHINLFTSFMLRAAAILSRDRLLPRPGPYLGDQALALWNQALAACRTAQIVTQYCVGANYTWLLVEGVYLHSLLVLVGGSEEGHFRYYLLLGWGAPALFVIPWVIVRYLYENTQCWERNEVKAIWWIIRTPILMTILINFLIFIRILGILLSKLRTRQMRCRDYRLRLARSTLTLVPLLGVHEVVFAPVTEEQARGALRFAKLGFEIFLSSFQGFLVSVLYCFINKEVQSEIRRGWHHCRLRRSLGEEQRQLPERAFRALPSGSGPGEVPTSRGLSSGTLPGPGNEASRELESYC


How the values were obtained:
Assay in all cases: cell-based or functional assay
[1] = molecular target: GLP-1 receptor (GLP-1R) (human, UniProt P43220 24-463)
[2] = molecular target: glucagon receptor (GCGR) (human, UniProt P47871 26-477)
[3] = molecular target: T1, glucose-dependent insulinotropic …
[4] = molecular target: glucagon receptor (human, UniProt P47871 26-477)
[5] = molecular target: T2, glucose-dependent insulinotropic …
[6] = molecular target: GLP-1 receptor (human, UniProt P43220 24-463)

Sequence of glucagon receptor (GCGR) (P47871 26-477): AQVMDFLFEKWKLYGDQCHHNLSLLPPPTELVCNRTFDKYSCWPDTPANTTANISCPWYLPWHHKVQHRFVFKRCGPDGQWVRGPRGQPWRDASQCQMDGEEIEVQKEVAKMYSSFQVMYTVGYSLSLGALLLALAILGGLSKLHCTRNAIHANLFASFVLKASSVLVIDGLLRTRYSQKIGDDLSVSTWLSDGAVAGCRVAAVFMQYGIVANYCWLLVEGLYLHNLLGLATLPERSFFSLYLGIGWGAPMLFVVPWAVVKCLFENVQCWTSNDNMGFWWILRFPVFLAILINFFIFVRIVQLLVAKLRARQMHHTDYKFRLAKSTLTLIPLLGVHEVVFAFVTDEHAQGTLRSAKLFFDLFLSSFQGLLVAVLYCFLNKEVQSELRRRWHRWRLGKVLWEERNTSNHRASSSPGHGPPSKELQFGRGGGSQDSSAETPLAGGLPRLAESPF
Sequence of glucagon receptor (P47871 26-477): as above

cAMP Mean pM GLP-1R [1] [pM]	cAMP Primary assay EC50 GLP-1R n1 [1] [nM]	cAMP Primary assay EC50 GLP-1R n2 [1] [nM]	cAMP Primary assay EC50 Gluc-R [2] [nM]	cAMP Primary assay EC50 Gluc-R (2nd) [2] [nM]	cAMP Primary assay EC50 GIP-R [3] [nM]	cAMP Primary assay EC50 GIP-R (2nd) [3] [nM]	Primary assay EC50 (cAMP), n1 [4] [nM]	Primary assay EC50 (cAMP), n2 [4] [nM]	Primary assay EC50 (cAMP), n1 [5] [nM]	Primary assay EC50 (cAMP), n2 [5] [nM]	Primary assay EC50 (cAMP), Mean pM GLP-1R [6] [pM]	Primary assay EC50 (cAMP), n1 [6] [nM]	Primary assay EC50 (cAMP), n2 [6] [nM]	Binder
10.1	0.012	0.0079	26	26	26	26								H[Aib]EGS[αMeF]TSDV[αMeS]S[αMeF]LEGEAAK([Ahx-Ahx-Ahx-Dodecanoyl(12-OPh(4-COOH))])E[αMeF]IA[αMeF]VV[αMeK]GG-NH2 (N-terminus assumed; SMILES CC[C@H](C)[C@H](NC(=O)[C@](C)(Cc1ccccc1)NC(=O)[C@H](CCC(=O)O)NC(=O)[C@H](CCCCNC(=O)CCCCCNC(=O)CCCCCNC(=O)CCCCCNC(=O)CCCCCCCCCCCOc1ccc(C(=O)O)cc1)NC(=O)[C@H](C)NC(=O)[C@H](C)NC(=O)[C@H](CCC(=O)O)NC(=O)CNC(=O)[C@H](CCC(=O)O)NC(=O)[C@H](CC(C)C)NC(=O)[C@](C)(Cc1ccccc1)NC(=O)[C@H](CO)NC(=O)[C@](C)(CO)NC(=O)[C@@H](NC(=O)[C@H](CC(=O)O)NC(=O)[C@H](CO)NC(=O)[C@@H](NC(=O)[C@](C)(Cc1ccccc1)NC(=O)[C@H](CO)NC(=O)CNC(=O)[C@H](CCC(=O)O)NC(=O)C(C)(C)NC(=O)[C@@H](N)Cc1c[nH]cn1)[C@@H](C)O)C(C)C)C(=O)N[C@@H](C)C(=O)N[C@@](C)(Cc1ccccc1)C(=O)N[C@H](C(=O)N[C@H](C(=O)N[C@@](C)(CCCCN)C(=O)NCC(=O)NCC(N)=O)C(C)C)C(C)C) [SEQ ID NO 142]
							340	340	340	340				HXEGTFTSDVSSYLEGQAAKEFIAWLVKGR (Aib 2; α-MeSer 11; C-terminal amide) [SEQ ID NO 21]
8.6	0.012	0.0052	27	27	27	27								H[Aib]EGS[αMeF]TSDV[αMeS]S[αMeF]LEGEAAK([PEG2′-Dodecanoyl(12-OPh(4-COOH))])E[αMeF]IA[αMeF]VV[αMeK]GG-NH2 [SEQ ID NO 143]
							540	540	540	540				HXEGTFTSDVSSYLEGQAAKEFIAWLVKGR (Aib 2; α-MeSer 8; α-MeSer 11; C-terminal amide) [SEQ ID NO 23]
							130	130	130	130				HXEGTFTSDVSSYLEGQAAKEFIAWLVKGR (Aib 2; α-MeSer 8; C-terminal amide) [SEQ ID NO 19]
25.5	0.029	0.022	26	26	26	26								H[Aib]EGS[αMeF]TSDV[αMeS]S[αMeF]LEGEAAK([γGlu-γGlu-γGlu-Dodecanoyl(12-OPh(4-COOH))])E[αMeF]IA[αMeF]VV[αMeK]GG-NH2 (N-terminus assumed; SMILES CC[C@H](C)[C@H](NC(=O)[C@](C)(Cc1ccccc1)NC(=O)[C@H](CCC(=O)O)NC(=O)[C@H](CCCCNC(=O)CC[C@H](NC(=O)CC[C@H](NC(=O)CC[C@H](NC(=O)CCCCCCCCCCCOc1ccc(C(=O)O)cc1)C(=O)O)C(=O)O)C(=O)O)NC(=O)[C@H](C)NC(=O)[C@H](C)NC(=O)[C@H](CCC(=O)O)NC(=O)CNC(=O)[C@H](CCC(=O)O)NC(=O)[C@H](CC(C)C)NC(=O)[C@](C)(Cc1ccccc1)NC(=O)[C@H](CO)NC(=O)[C@](C)(CO)NC(=O)[C@@H](NC(=O)[C@H](CC(=O)O)NC(=O)[C@H](CO)NC(=O)[C@@H](NC(=O)[C@](C)(Cc1ccccc1)NC(=O)[C@H](CO)NC(=O)CNC(=O)[C@H](CCC(=O)O)NC(=O)C(C)(C)NC(=O)[C@@H](N)Cc1c[nH]cn1)[C@@H](C)O)C(C)C)C(=O)N[C@@H](C)C(=O)N[C@@](C)(Cc1ccccc1)C(=O)N[C@H](C(=O)N[C@H](C(=O)N[C@@](C)(CCCCN)C(=O)NCC(=O)NCC(N)=O)C(C)C)C(C)C) [SEQ ID NO 139]
							25	25	25	25	100	0.064	0.14	H[Aib]EGS[αMeF]TSDV[αMeS]S[αMeF]LEGEAAK([PEG2′-PEG2′-γGlu-Stearoyl])E[αMeF]IA[αMeF]VV[αMeK]GG-NH2 [SEQ ID NO 3]
21	0.027	0.015	25	25	25	25								H[Aib]EGS[αMeF]TSDV[αMeS]S[αMeF]LEGEAAK([PEG2′-PEG2′-PEG2′-Dodecanoyl(12-OPh(4-COOH))])E[αMeF]IA[αMeF]VV[αMeK]GG-NH2 [SEQ ID NO 145]
12.6	0.016	0.0096	26	26	26	26								H[Aib]EGS[αMeF]TSDV[αMeS]S[αMeF]LEGEAAK([PEG2′-PEG2′-Dodecanoyl(12-OPh(4-COOH))])E[αMeF]IA[αMeF]VV[αMeK]GG-NH2 [SEQ ID NO 144]
4.9	0.0059	0.0039	27	27	27	27								H[Aib]EGS[αMeF]TSDV[αMeS]S[αMeF]LEGEAAK([Ahx-Dodecanoyl(12-OPh(4-COOH))])E[αMeF]IA[αMeF]VV[αMeK]GG-NH2 (N-terminus assumed; SMILES CC[C@H](C)[C@H](NC(=O)[C@](C)(Cc1ccccc1)NC(=O)[C@H](CCC(=O)O)NC(=O)[C@H](CCCCNC(=O)CCCCCNC(=O)CCCCCCCCCCCOc1ccc(C(=O)O)cc1)NC(=O)[C@H](C)NC(=O)[C@H](C)NC(=O)[C@H](CCC(=O)O)NC(=O)CNC(=O)[C@H](CCC(=O)O)NC(=O)[C@H](CC(C)C)NC(=O)[C@](C)(Cc1ccccc1)NC(=O)[C@H](CO)NC(=O)[C@](C)(CO)NC(=O)[C@@H](NC(=O)[C@H](CC(=O)O)NC(=O)[C@H](CO)NC(=O)[C@@H](NC(=O)[C@](C)(Cc1ccccc1)NC(=O)[C@H](CO)NC(=O)CNC(=O)[C@H](CCC(=O)O)NC(=O)C(C)(C)NC(=O)[C@@H](N)Cc1c[nH]cn1)[C@@H](C)O)C(C)C)C(=O)N[C@@H](C)C(=O)N[C@@](C)(Cc1ccccc1)C(=O)N[C@H](C(=O)N[C@H](C(=O)N[C@@](C)(CCCCN)C(=O)NCC(=O)NCC(N)=O)C(C)C)C(C)C) [SEQ ID NO 140]
6.9	0.0087	0.005	27	27	27	27								H[Aib]EGS[αMeF]TSDV[αMeS]S[αMeF]LEGEAAK([Ahx-Ahx-Dodecanoyl(12-OPh(4-COOH))])E[αMeF]IA[αMeF]VV[αMeK]GG-NH2 (N-terminus assumed; SMILES CC[C@H](C)[C@H](NC(=O)[C@](C)(Cc1ccccc1)NC(=O)[C@H](CCC(=O)O)NC(=O)[C@H](CCCCNC(=O)CCCCCNC(=O)CCCCCNC(=O)CCCCCCCCCCCOc1ccc(C(=O)O)cc1)NC(=O)[C@H](C)NC(=O)[C@H](C)NC(=O)[C@H](CCC(=O)O)NC(=O)CNC(=O)[C@H](CCC(=O)O)NC(=O)[C@H](CC(C)C)NC(=O)[C@](C)(Cc1ccccc1)NC(=O)[C@H](CO)NC(=O)[C@](C)(CO)NC(=O)[C@@H](NC(=O)[C@H](CC(=O)O)NC(=O)[C@H](CO)NC(=O)[C@@H](NC(=O)[C@](C)(Cc1ccccc1)NC(=O)[C@H](CO)NC(=O)CNC(=O)[C@H](CCC(=O)O)NC(=O)C(C)(C)NC(=O)[C@@H](N)Cc1c[nH]cn1)[C@@H](C)O)C(C)C)C(=O)N[C@@H](C)C(=O)N[C@@](C)(Cc1ccccc1)C(=O)N[C@H](C(=O)N[C@H](C(=O)N[C@@](C)(CCCCN)C(=O)NCC(=O)NCC(N)=O)C(C)C)C(C)C) [SEQ ID NO 141]
